The source of these data is patent publication US20240239881A1 (Innovent, published 2024).

B1: chimeric antibody 86E9 (antibody, human IgG1, kappa)
heavy: not shown
light: DIVMTQSHKFLSTSVGARVSITCKASQDVGTDVAWYQQKPGQSPKLLIYWASTRHTGVPDRFTGSGSGTDFTLTISNVQSEDLSDYFCQQYSSYPLTFGGGTKLEIKRTVAAPSVFIFPPSDEQLKSGTASVVCLLNNFYPREAKVQWKVDNALQSGNSQESVTEQDSKDSTYSLSSTLTLSKADYEKHKVYACEVTHQGLSSPVTKSFNRGEC
B2: chimeric antibody 107H7 (antibody, human IgG1, kappa)
heavy: not shown
light: B1 light with S7T, H8P
B3: chimeric antibody 81H10 (antibody, human IgG1, kappa, V domains shown)
VH: EVKLEESGGGLVQPGGSMKLSCVASGFTFSNYWMNWVRQSPEKGLEWVAEIRLKSNNYATHYAESVKGRFTISRDVSKSSVYLQMNNLRTEDTGIYYCTDTAPFAYWGQGTLVTVSA
VL: DIVMTQSHKFMSTSVGDRVSITCKASQDVGTDVAWYQQKPGQSPKLLIYWASTRHTGVPDRFTGSGSGTDFTLTISNVQSEDLSDYFCQQYSSYPLTFGGGTKLEIKR
B4: affinity matured antibody Amhz81H10.4.30 (antibody, human IgG1, kappa, V domains shown)
VH: EVQLVESGGGLVKPGGSLRLSCAASGFTFRAAWMNWVRQAPGKGLEWVAEIRLKSNHYETHYAESVKGRFTISRDVSKNTVYLQMNSLKTEDTAVYYCTDTQPGAYWGQGTLVTVSS
VL: DIQMTQSPSSLSASVGDRVTITCKASQYVFTDVAWYQQKPGKAPKLLIYWASTRWTGVPSRFSGSGSGTDFTLTISSLQPEDFATYYCQQTSSYPLTFGGGTKVEIKR
B5: affinity matured antibody Amhz81H10.4.49 (antibody, human IgG1, kappa, V domains shown)
VH: B4 VH with R30Q, A31N, A32Y, M34A, H57N, E59A, Q102T, G104A
VL: B4 VL with Y28D, F30W, A51G, S92N, S93I
notes: also called Am81H10.4.49
B6: parental murine hybridoma antibody of chimeric antibody 86E9 (antibody, V domains shown)
VH: B3 VH with K3M, E5V, S80G
VL: DIVMTQSHKFLSTSVGARVSITCKASQDVGTDVAWYQQKPGQSPKLLIYWASTRHTGVPDRFTGSGSGTDFTLTISNVQSEDLSDYFCQQYSSYPLTFGGGTKLEIK
notes: Murine antibody from the hybridoma; also called 86E9 (murine hybridoma antibody)
B7: parental murine hybridoma antibody of chimeric antibody 81H10 (antibody, V domains shown)
VH: B3 VH
VL: B6 VL with L11M, A17D
notes: Murine antibody from the hybridoma; also called 81H10 (murine hybridoma antibody)
B8: parental murine hybridoma antibody of chimeric antibody 107H7 (antibody, V domains shown)
VH: B3 VH with K3M, E5V, S80G
VL: B6 VL with S7T, H8P
notes: Murine antibody from the hybridoma; also called 107H7 (murine hybridoma antibody)

Substitutions are numbered along the chain they refer to.

One experiment addresses T1, Human Ang1 (human, UniProt Q15389 20-498, limits assumed).
T1 construct: also called hAng1
T1 sequence (looked up): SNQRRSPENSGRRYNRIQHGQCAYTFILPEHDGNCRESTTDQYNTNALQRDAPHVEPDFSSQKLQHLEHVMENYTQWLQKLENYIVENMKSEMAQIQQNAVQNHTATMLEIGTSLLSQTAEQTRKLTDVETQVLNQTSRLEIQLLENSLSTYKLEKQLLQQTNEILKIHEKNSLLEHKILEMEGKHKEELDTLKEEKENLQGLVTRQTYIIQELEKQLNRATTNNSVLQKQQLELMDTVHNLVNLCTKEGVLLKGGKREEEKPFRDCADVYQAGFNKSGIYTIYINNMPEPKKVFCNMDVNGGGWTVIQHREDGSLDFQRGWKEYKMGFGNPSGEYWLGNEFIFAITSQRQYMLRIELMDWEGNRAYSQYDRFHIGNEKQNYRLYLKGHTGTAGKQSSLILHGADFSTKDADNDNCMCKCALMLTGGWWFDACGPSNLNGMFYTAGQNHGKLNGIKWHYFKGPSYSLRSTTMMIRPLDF
The experiment in a line: ForteBio BLI, antibody on AHQ sensor. The protocol:
(§1) The equilibrium dissociation constants (KD) of the above exemplary antibodies of the present invention binding to human Ang2 (h Ang2), cynomolgus monkey Ang2 (cAng2), murine Ang2 (mAng2), and human Ang1 (hAng1) were determined using the biological optical interferometry (ForteBio) assay.
(§2) The ForteBio affinity assay was performed according to the existing method (Estep, P et al., High throughput solution-based measurement of antibody-antigen affinity and epitope binning. MAbs, 2013.5 (2): p. 270-8). Briefly, the sensor was equilibrated in the assay buffer off-line for 30 min, followed by on-line detection for 60 s to establish the baseline. Then the purified antibodies obtained as described above were loaded on-line onto an AHQ sensor (ForteBio) for ForteBio affinity assay. The sensors with loaded antibodies were exposed to 100 nM of hAng2, cAng2, mAng2, and hAng1 antigens for 5 min, and then were transferred into the assay buffer for dissociation for 5 min to determine the dissociation rate. Kinetic analysis was performed using a 1:1 binding model.
Background: BLI is a label-free optical method that tracks binding on a fibre tip over time.
Turning to B1, the binding result is “no binding (tested: 100 nM)”.

Consider B2, for which the binding result was “no binding (tested: 100 nM)”.

In the case of B3, the binding result is given as “no binding (tested: 100 nM)”.

With B4, the binding result is “no binding (tested: 100 nM)”.

On to B5, for which the binding result is reported as “no binding (tested: 100 nM)”.

A further experiment concerns the target T2, recombinant biotinylated hAngiopoietin-2 protein (R&D, Cat. No.: BT623B/CF) (human, UniProt O15123 19-496, limits assumed, biotinylated (sites not given)).
T2 construct: Bought protein; also called Biotin Ang2; human biotin Ang2 protein
T2 sequence: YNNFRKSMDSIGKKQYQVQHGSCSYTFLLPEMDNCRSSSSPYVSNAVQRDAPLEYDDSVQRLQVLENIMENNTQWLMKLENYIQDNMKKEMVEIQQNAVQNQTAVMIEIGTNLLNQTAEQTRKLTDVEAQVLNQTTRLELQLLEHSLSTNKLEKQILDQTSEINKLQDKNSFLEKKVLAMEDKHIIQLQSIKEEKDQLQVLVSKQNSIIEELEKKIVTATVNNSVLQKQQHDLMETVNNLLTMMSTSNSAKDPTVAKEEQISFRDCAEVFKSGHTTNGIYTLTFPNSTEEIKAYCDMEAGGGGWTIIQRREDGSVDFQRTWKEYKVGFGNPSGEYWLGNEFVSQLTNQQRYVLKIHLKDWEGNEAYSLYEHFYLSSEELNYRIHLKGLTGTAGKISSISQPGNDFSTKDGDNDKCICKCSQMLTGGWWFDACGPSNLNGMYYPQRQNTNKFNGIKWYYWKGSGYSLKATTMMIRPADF
The experiment in a line: blocking ELISA: antibody titrated against biotinylated hAng2 (300 ng/ml final); blocked binding to coated hTie2 protein; Avidin-HRP detection. On the procedure: The abilities of 81H10, 86E9, 107H7, hz81H10.4, Amhz81H10.4.30, Amhz81H10.4.49, and the control antibodies Nesvacumab and faricimab to block the binding of human Ang2 to hTie2 were determined by ELISA. Faricimab is a bispecific antibody drug undergoing a clinical trial and developed by Roche, which targets both angiopoietin-2 (Ang-2) and VEGF-A.
Then the plate was blocked using 5% BSA for 1 h. The biotinylated antigen, recombinant biotinylated hAngiopoietin-2 protein (R&D, Cat. No.: BT623B/CF), was diluted to 600 ng/ml, and was added into the microtiter plate at 50 μl/well. The antibodies (81H10, 86E9, 107H7, hz81H10.4, Amhz81H10.4.30 and Amhz81H10.4.49) prepared as described above were gradiently diluted with a total of 8 or 12 dilution points starting from the highest concentration, and then added to the microtiter plate at 50 μl/well, and incubated in PBS on ice for 30 min. Then, 50 ul of antigen solution was added to the microtiter plate, in which the final antigen concentration was 300 ng/ml. The plate containing the antigen-antibody mixture was incubated for 90 min. After three washes with PBS, the supernatant was discarded, and Avidin-HRP (Invitrogen) diluted at 1:10000 was added at 100 μl/well, then incubated at room temperature for 30 min. PBS was used to wash the plate six times. Then TMB chromogen solution (solarbio) was added at 100 ul/well to allow for chromogenic reaction for 1 min, then the reaction was terminated with the addition of stop solution (solarbio) at 100 ul/well.
By IC50 is commonly meant the concentration at which inhibition is half-maximal. As for B1, the IC50 amounted to 5.29 nM.

Consider B2, for which the IC50 came out at 9.15 nM.

With B3, the IC50 is 1.32 nM.

On to B4, for which the IC50 was 4.91 nM.

B5: the IC50 is 0.506 nM.

The target in the next experiment is T2, recombinant biotinylated …. As to the kind of experiment: ELISA: biotin Ang2 (R&D BT623B/CF) captured on coated streptavidin (SA), antibody titrated, anti-human IgG-HRP, OD450-OD620, GraphPad fit. The protocol: The binding of 81H10 and hz81H10.4 of the present invention to human biotin Ang2 protein was measured in an SA-biotin Ang2-based ELISA assay.
SA protein (Thermo Fisher) was diluted to 1 μg/ml with PBS, and was coated onto a microtiter plate at 100 μl/well at 4° C. overnight. After three washes with PBST, the plate was blocked with 5% BSA for 1 h. Biotin Ang2 (R&D, Cat. No. BT623B/CF) was incubated at a concentration of 0.5 μg/ml for 1 h. Gradient diluted antibodies (maximum concentration 20 nM, 1:3 serial dilution) were added to the microtiter plate and incubated for 2 h, and the plate was washed three times with PBST. […] Then the plate was washed for 6 times with PBST. Chromogenic reaction was performed with 100 ul TMB and terminated with 100 ul 2N sulfuric acid. The reading of OD₄₅₀-OD₆₂₀ was taken by microplate reader. The concentration-dependent curve was fitted with GraphPad based on the OD₄₅₀-OD₆₂₀.
(In general: In an ELISA, binding on a coated surface is turned into a signal by an enzyme label.)
As usually defined, the EC50 is the concentration that produces a half-maximal response. On to B3, for which the EC50 is 0.0142 nM.

In another experiment the target is T3, Human ang2 protein (Sino Biological, Cat No.: 10691-H08H) (human, UniProt O15123 19-496).
T3 construct: Bought protein; also called recombinant hAng2; human hAng2
T3 sequence: T2 sequence
As to the kind of experiment: ELISA: human ang2 protein (Sino Biological 10691-H08H) coated at 0.25 ug/ml, antibody titrated, HRP-conjugated secondary antibody, OD450-OD620, GraphPad fit. The protocol:
The binding of the respective parental murine hybridoma antibodies of the above exemplary chimeric antibodies 81H10, 86E9, and 107H7 to human hAng2 was measured in an ELISA-based assay.
Human ang2 protein (Sino Biological, Cat No.: 10691-H08H) was diluted to 0.25 μg/ml with PBS, and was coated onto a microtiter plate at 100 μl/well at 4° C. overnight. After three washes with PBST, the plate was blocked with 5% BSA. Gradient diluted antibodies (maximum concentration 20 nM, 1:2 serial dilution) were added to the microtiter plate and incubated for 2 h. After three washes with PBST, a 1:10000 dilution of anti-mouse IgG, HRP-conjugated antibody (Cell Signaling, Cat. No. 7076P2) was added, and after incubation for 60 min, the plate was washed six times with PBST. Chromogenic reaction was performed with 100 ul TMB and terminated with 100 ul 2N sulfuric acid. The reading of OD₄₅₀-OD₆₂₀ was taken by microplate reader. The concentration-dependent curve was fitted with GraphPad based on the OD₄₅₀-OD₆₂₀.
Consider B6, for which the midpoint of the response, the EC50, lay at 0.434 nM.

As to B7, the EC50 amounted to 0.248 nM.

B8 gave an EC50 of 0.231 nM.

A further experiment addresses T4, human Ang2 (human, UniProt O15123 19-496, limits assumed).
T4 construct: also called hAng2; h Ang2
T4 sequence: T2 sequence
As to the kind of experiment: ForteBio BLI, antibody on AHQ sensor, 100 nM antigen, 1:1 model. The protocol:
as §1, §2
One may read the Kd as the free concentration of one partner at which half of the binding sites on the other are occupied at equilibrium, for simple one-to-one binding. Higher therefore signals weaker binding. For the molecule B1, the Kd amounted to 7.63 nM.

Regarding B2, the affinity, expressed as Kd, was 7.75 nM. The Kd values of the last two molecules are within 1.5-fold of each other.

In the case of B3, the Kd came out at 6.92 nM.

With B4, binding was put at a Kd of 23.2 nM.

B5 had a Kd of 0.647 nM.
